Assay results: the supplement of paper PMC10567573

B1: SOAT1 (parent)
chain: VYYIFERLCAPLFRNIKQEPFSAR
B2: MATN2 (parent)
chain: VNVPGSFVCQCYSGYALAEDGKRC

Variants of: B1
Experiment: protein stability index of a GFP-peptide fusion (GPS, HEK-293T) (PSI 1-6); higher = more stable
Details: c terminus: a fixed tail appended
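Note: lentivirally expressed fusions sorted by FACS into six bins by GFP to DsRed ratio, PSI derived from sequencing read proportions per bin multiplied by bin number.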

| Variant | protein stability index |
| --- | --- |
| VYYIFEWLCAPLFRNIKQEPFSAR | 3.93 |
| VYYIFEMLCAPLFRNIKQEPFSAR | 1.08 |
| VYYIFERLCAPLFTNIKQEPFSAR | 3.18 |
| VYYIFERLCAPLFANIKQEPFSAR | 3.64 |
| VYYIFERLCAPLFCNIKQEPFSAR | 2.71 |
| VYYIFERLCAPLFNNIKQEPFSAR | 2.44 |
| VYYIFERLCAPLFQNIKQEPFSAR | 3.82 |
| VYYIFERLCAPLFYNIKQEPFSAR | 1.87 |
| VYYIFERLCAPLFDNIKQEPFSAR | 3.52 |
| VYYIFCRLCAPLFRNIKQEPFSAR | 3.08 |
| VYYIFKRLCAPLFRNIKQEPFSAR | 2.23 |
| VYYIFFRLCAPLFRNIKQEPFSAR | 3.18 |
| VYYIFNRLCAPLFRNIKQEPFSAR | 2.65 |
| VYYIFTRLCAPLFRNIKQEPFSAR | 2.61 |
| VYYIFPRLCAPLFRNIKQEPFSAR | 1.83 |
| VYYIFRRLCAPLFRNIKQEPFSAR | 2.09 |
| VYYIFERPCAPLFRNIKQEPFSAR | 2.29 |
| VYYIFERCCAPLFRNIKQEPFSAR | 1.64 |
| VYYIFERRCAPLFRNIKQEPFSAR | 2.86 |
| VYYIEERLCAPLFRNIKQEPFSAR | 2.49 |
| VYYIAERLCAPLFRNIKQEPFSAR | 1.68 |

| Variant | protein stability index |
| --- | --- |
| VYYIPERLCAPLFRNIKQEPFSAR | 2.6 |
| VYYIMERLCAPLFRNIKQEPFSAR | 1.9 |
| VYYINERLCAPLFRNIKQEPFSAR | 1.49 |
| VYYIDERLCAPLFRNIKQEPFSAR | 1.95 |
| VYYIFERLCAPLFRNMKQEPFSAR | 1.75 |
| VYYIFERLCAPLFRNKKQEPFSAR | 2.45 |
| VYYIFERLCAPLFRNLKQEPFSAR | 2.61 |
| VYYIFERLCAPLFRNYKQEPFSAR | 2.17 |
| VYYIFERLCAPLFRNDKQEPFSAR | 3.95 |
| VYYIFERLCAPLFRNWKQEPFSAR | 3.96 |
| VYYIFERLCAPLFRNAKQEPFSAR | 1.91 |
| VYYIFERLCAPLFRNTKQEPFSAR | 1.58 |
| VYKIFERLCAPLFRNIKQEPFSAR | 2.5 |
| VYSIFERLCAPLFRNIKQEPFSAR | 3.46 |
| VYNIFERLCAPLFRNIKQEPFSAR | 2.11 |
| VYEIFERLCAPLFRNIKQEPFSAR | 1.5 |
| VYAIFERLCAPLFRNIKQEPFSAR | 2.26 |
| VYIIFERLCAPLFRNIKQEPFSAR | 3 |
| VYWIFERLCAPLFRNIKQEPFSAR | 2.93 |
| VYMIFERLCAPLFRNIKQEPFSAR | 1.77 |
| VYYIFERLCAPLFRNIKQCPFSAR | 3.4 |

| Variant | protein stability index |
| --- | --- |
| VYYIFERLCAPLFRNIKQMPFSAR | 1.88 |
| VYYIFERLCAPLFRNIKQPPFSAR | 2.76 |
| VYYIFERLCAPLFRNIKQWPFSAR | 2.4 |
| VYYIFERLCAPLFRNIKQGPFSAR | 2.86 |
| VYYIFERLCAPLFRNIKQNPFSAR | 1.47 |
| VYYIFERLCAPLFRNIKQHPFSAR | 1.93 |
| VYYIFERLCAPLFRNIKQAPFSAR | 2.12 |
| VYYIFERLCAPLFRNIKQYPFSAR | 2.41 |
| VYYIFERLCAPLFRNIKQFPFSAR | 1.58 |
| VYYIFERLCASLFRNIKQEPFSAR | 1.57 |
| VYYIFERLCAYLFRNIKQEPFSAR | 1.83 |
| VYYIFERLCAQLFRNIKQEPFSAR | 1.25 |
| VYYIFERLCAFLFRNIKQEPFSAR | 1.83 |
| VYYIFERLCAGLFRNIKQEPFSAR | 2.08 |
| VYYIFERLCAKLFRNIKQEPFSAR | 3.65 |
| VYYIFERLCARLFRNIKQEPFSAR | 2.24 |
| VYYIFERLCACLFRNIKQEPFSAR | 1.09 |
| VYYIFERLCAPLFRWIKQEPFSAR | 2.15 |
| VYYIFERLCAPLFRVIKQEPFSAR | 1.82 |
| VYYIFERLCAPLFRLIKQEPFSAR | 2.75 |
| VYYIFERLCAPLFRYIKQEPFSAR | 1.85 |

| Variant | protein stability index |
| --- | --- |
| VYYIFERLCAPLFRFIKQEPFSAR | 1.67 |
| VYYIFERLCAPLFRIIKQEPFSAR | 2.5 |
| VYYIFERLCAPLFRGIKQEPFSAR | 1.65 |
| VYYIFERLCAPLFRAIKQEPFSAR | 2.28 |
| VYYIFERLCAPLFRCIKQEPFSAR | 2.61 |
| VYYIFERLCAPLFRTIKQEPFSAR | 3.46 |
| VYYIFERLCAPLFRNIKQEPFSAN | 4.22 |
| VYYIFERLCAPLFRNIKQEPFSAE | 3.4 |
| VYYIFERLCAPLFRNIKQEPFSAH | 2.48 |
| VYYIFERLCAPLFRNIKQEPFSAM | 2.64 |
| VYYIFERLCAPLFRNIKQEPFSAI | 2.73 |
| VYYIFERLCAPLFRNIKQEPFSAK | 2.42 |
| VYYIFERLLAPLFRNIKQEPFSAR | 1.67 |
| VYYIFERLRAPLFRNIKQEPFSAR | 3.16 |
| VYYIFERLHAPLFRNIKQEPFSAR | 2.02 |
| VYYIFERLTAPLFRNIKQEPFSAR | 2.26 |
| VYYIFERLKAPLFRNIKQEPFSAR | 1.6 |
| VYYIFERLNAPLFRNIKQEPFSAR | 1.04 |
| VYYIFERLSAPLFRNIKQEPFSAR | 2.34 |
| VYYIFERLIAPLFRNIKQEPFSAR | 1.31 |

Variants of: B2
Experiment: as above
Details: c terminus: a fixed tail appended

| Variant | protein stability index |
| --- | --- |
| ANVPGSFVCQCYSGYALAEDGKRC | 2.14 |
| KNVPGSFVCQCYSGYALAEDGKRC | 1.92 |
| DNVPGSFVCQCYSGYALAEDGKRC | 2.6 |
| GNVPGSFVCQCYSGYALAEDGKRC | 2.6 |
| MNVPGSFVCQCYSGYALAEDGKRC | 1.87 |
| INVPGSFVCQCYSGYALAEDGKRC | 2.43 |
| FNVPGSFVCQCYSGYALAEDGKRC | 3.08 |
| HNVPGSFVCQCYSGYALAEDGKRC | 1.96 |
| ENVPGSFVCQCYSGYALAEDGKRC | 2.59 |
| LNVPGSFVCQCYSGYALAEDGKRC | 2.17 |
| CNVPGSFVCQCYSGYALAEDGKRC | 2.15 |
